# According to patent US20100092467A1 (US Dept. of Health and Human Services, published 2010):
# Ends that are not written are not given here. * marks the point of attachment. Biotin = O=C1N[C@H]2[C@H](CS[C@H]2CCCCC(=O)*)N1
# Biological target: CD36, murine, endogenous on cells (mouse) (UniProt Q08857)
# Test: cell-based or functional assay
# CD36, murine, endogenous on cells (mouse), sequence (Q08857 whole entry): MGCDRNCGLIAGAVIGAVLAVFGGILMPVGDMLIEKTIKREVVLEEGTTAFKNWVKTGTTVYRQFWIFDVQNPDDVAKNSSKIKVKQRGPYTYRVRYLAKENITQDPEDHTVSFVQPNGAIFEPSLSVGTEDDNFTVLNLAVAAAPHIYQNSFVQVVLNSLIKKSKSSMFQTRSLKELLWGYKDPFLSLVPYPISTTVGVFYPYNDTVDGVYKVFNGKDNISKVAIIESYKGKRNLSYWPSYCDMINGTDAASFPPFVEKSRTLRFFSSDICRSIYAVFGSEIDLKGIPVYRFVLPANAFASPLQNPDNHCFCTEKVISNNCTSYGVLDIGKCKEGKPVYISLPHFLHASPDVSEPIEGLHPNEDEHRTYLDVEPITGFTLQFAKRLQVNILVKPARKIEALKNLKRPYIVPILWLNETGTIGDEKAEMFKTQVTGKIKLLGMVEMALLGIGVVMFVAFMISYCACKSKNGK
row,NO-stimulated adhesion of MASMC on type I collagen [nM],Molecule
1,22,"Thrombospondin-1 (TSP1), prepared from human platelets (from UniProt P07996 19-1170) (ligand)"

# Biological target: CD47, human, endogenous on cells (human, UniProt Q08722 19-323)
# Test: cell-based or functional assay
Molecule,NO-driven HASMC adhesion to collagen [nM],cGMP signaling IC50** [nM]
Ac-WKDFTAYR [peptide 37300 (Ac-WKDFTAYR)],–,~1000
IGYKDFTAYR [peptide 37417 (IGYKDFTAYR)],–,~100
IGWKDFTAAR [peptide 37555 (IGWKDFTAAR)],–,~10000
IGWHDFTAYR [peptide 37414 (IGWHDFTAYR)],–,> 10000
IGWKDFAAYR [peptide 37299],–,> 10000
IGWKEFTAYR [peptide 37415 (IGWKEFTAYR)],–,1000
HIGWKDFTAYRWRLS [peptide C6b (HIGWKDFTAYRWRLS)],–,~100

# Next, values leading:
NO-driven HASMC adhesion to collagen [nM],cGMP signaling IC50** [nM],Molecule
> 0.4,–,"E3CaG1, recombinant C-terminal regions of TSP1 (from UniProt P07996 646-1170) (ligand)"
–,~100,IGWKDYTAYR [peptide 37298 (IGWKDYTAYR)]
–,> 10000,IGWADFTAYR [peptide 37413]
–,> 10000,IGWKNFTAYR [peptide 37297 (IGWKNFTAYR)]
–,~100,Biotin-IGWKDFTAYR [peptide C6d (biotin-IGWKDFTAYR)]
–,~1000,AGWKDFTAYR [peptide 37416 (AGWKDFTAYR)]
